Where two headings read alike, the source gives them in different places.
Legend:
[1] = biological target: T1, human GITR expressed on cells (human, UniProt Q9Y5U5 26-241); assay: flow cytometry (FACS), MFI, CHO cells expressing human GITR
T1 construct: whole, on cells; also called TNFRSF18; CD357
T1 sequence (looked up): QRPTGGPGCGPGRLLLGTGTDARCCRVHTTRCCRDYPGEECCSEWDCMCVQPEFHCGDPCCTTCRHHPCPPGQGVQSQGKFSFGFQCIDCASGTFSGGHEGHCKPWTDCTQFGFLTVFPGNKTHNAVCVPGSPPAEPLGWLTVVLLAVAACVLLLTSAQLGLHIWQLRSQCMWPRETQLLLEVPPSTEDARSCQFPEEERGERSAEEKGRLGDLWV
Description: (§1) Anti-GITR/CD137 bi-specific antibodies were analyzed by FACS for their binding properties to human GITR and/or human CD137 expressed on CHO cells. Briefly, cultured cells were harvested, counted and cell viability was evaluated using the Trypan Blue exclusion method. Viable cells were then adjusted to 2×10⁶ cells per mL in PBS containing 2% BSA. 100 μL of this cell suspension were further aliquoted per well into a V-bottom 96-well plate. […] After incubation for 2 hours at 4° C., cells were centrifuged (3 min, 1000× g), washed with 250 μL/well BSA-containing FACS Stain Buffer, resuspended and incubated for an additional 1 hour at 4° C. with 100 μL/well fluorochrome-conjugated anti-IgG antibody for detection of the bisepecific antibody. Cells were then washed with 250 μL/well BSA-containing FACS Stain Buffer, resuspended in 100 μL/well FACS Stain Buffer, acquired and analyzed using a FACS machine. Binding of the bispecific antibodies to human GITR or human CD137 expressing CHO cells were evaluated and the mean fluorescence intensity is plotted in histograms or dot plots.

[2] = biological target: T2, human CD137 expressed on cells (human, UniProt Q07011 24-255); assay: FACS on CHO cells expressing human CD137 (MFI)
T2 construct: whole, on cells; also called 4-1BB; TNFRSF9
T2 sequence (Q07011 24-255): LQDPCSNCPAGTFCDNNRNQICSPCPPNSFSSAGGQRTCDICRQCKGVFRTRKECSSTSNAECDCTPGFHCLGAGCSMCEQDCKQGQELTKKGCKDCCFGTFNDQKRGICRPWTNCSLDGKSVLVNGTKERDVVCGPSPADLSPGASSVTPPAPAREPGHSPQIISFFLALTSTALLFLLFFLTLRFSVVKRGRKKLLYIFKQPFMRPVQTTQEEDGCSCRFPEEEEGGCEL
Description: as §1

[3] = biological target: T2, human CD137 expressed on cells; assay: FACS on CHO cells expressing human CD137 (MFI); remark: listed apart in the source
Description: as §1, with “Anti-OX40/CD137” for “Anti-GITR/CD137”, “OX40” for “GITR”, “1000×g),” for “1000× g),”

[4] = biological target: T3, human OX40 expressed on CHO cells (human, UniProt P43489 29-277); assay: FACS on CHO cells expressing human OX40 (MFI)
T3 construct: whole, on cells
T3 sequence (looked up): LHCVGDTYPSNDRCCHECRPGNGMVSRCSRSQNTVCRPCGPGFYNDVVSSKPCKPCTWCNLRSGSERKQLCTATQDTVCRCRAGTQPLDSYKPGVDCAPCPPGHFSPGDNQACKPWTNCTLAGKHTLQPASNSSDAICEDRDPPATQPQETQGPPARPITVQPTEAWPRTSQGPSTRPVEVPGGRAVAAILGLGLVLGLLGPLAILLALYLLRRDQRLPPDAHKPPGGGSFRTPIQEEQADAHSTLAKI
Description: as §1, with “Anti-OX40/CD137” for “Anti-GITR/CD137”, “OX40” for “GITR”, “1000×g),” for “1000× g),”

B1: Ly750 (bispecific antibody, human IgG1, kappa)
heavy: QVQLQESGPGLVKPSETLSLTCTVSGFSLTSYNVHWIRQPPGKGLEWIGVIWSGVRTDYNSVLKSRVTISVDTSKNQFSLKLSSVTAADTAVYYCARGTYDANYHDVMDAWGQGTMVTVSSASTKGPSVFPLAPSSKSTSGGTAALGCLVKDYFPEPVTVSWNSGALTSGVHTFPAVLQSSGLYSLSSVVTVPSSSLGTQTYICNVNHKPSNTKVDKKVEPKSCDKTHTCPPCPAPELLGPSVFLFPPKPKDTLMISRTPEVTCVVVDVSHEDPEVKFNWYVDGVEVHNAKTKPREEQYNSTYRVVSVLTVLHQDWLNGKEYKCKVSNKALPAPIEKTISKAKGQPREPQVYTLPPSREEMTKNQVSLTCLVKGFYPSDIAVEWESNGQPENNYKTTPPVLDSDGSFFLYSKLTVDKSRWQQGNVFSCSVMHEALHNHYTQKSLSLSPGGGGGSGGGGSGGGGSGGGGSDIQMTQSPSSLSASVGDRVTITCRASQDIRSNLNWYQQKPGGAVKLLIYYTSRLHSGVPSRFSGSGSGTDYTLTISSLQPEDFATYFCQQSEKLPRTFGGGTKVEIRGGGGSGGGGSGGGGSGGGGSQVQLVQSGAEVKKPGASVKVSCKASGYTFAGFEMHWVRQAPGQGLEWMGAIDPKTGGTDYNQKFKDRVTMTRDTSISTAYMELSRLRSDDTAVYYCARDLGYFDVWGQGTLVTVSS
light: DTVLTQSPATLSLSPGERATLSCRASKSVRTGMHWYQQKPGQAPRLLVYGASNLESGIPARFSGSGSGTDFTLTISSLEPEDFATYFCHQSWNHFTFGQGTKLEIKRTVAAPSVFIFPPSDEQLKSGTASVVCLLNNFYPREAKVQWKVDNALQSGNSQESVTEQDSKDSTYSLSSTLTLSKADYEKHKVYACEVTHQGLSSPVTKSFNRGEC
notes: Anti-GITR/CD137: TM677 heavy chain fused to Ly1630 scFv (VL-VH)
B1 was tested, and the binding result [1] was “binds” and the “EC50 (read off the curve)” value [2] was ~0.2 µg/mL.

B2: Ly751 (bispecific antibody, human IgG1, kappa)
heavy: QVQLQESGPGLVKPSETLSLTCTVSGFSLTSYNVHWIRQPPGKGLEWIGVIWSGVRTDYNSVLKSRVTISVDTSKNQFSLKLSSVTAADTAVYYCARGTYDANYHDVMDAWGQGTMVTVSSASTKGPSVFPLAPSSKSTSGGTAALGCLVKDYFPEPVTVSWNSGALTSGVHTFPAVLQSSGLYSLSSVVTVPSSSLGTQTYICNVNHKPSNTKVDKKVEPKSCDKTHTCPPCPAPELLGPSVFLFPPKPKDTLMISRTPEVTCVVVDVSHEDPEVKFNWYVDGVEVHNAKTKPREEQYNSTYRVVSVLTVLHQDWLNGKEYKCKVSNKALPAPIEKTISKAKGQPREPQVYTLPPSREEMTKNQVSLTCLVKGFYPSDIAVEWESNGQPENNYKTTPPVLDSDGSFFLYSKLTVDKSRWQQGNVFSCSVMHEALHNHYTQKSLSLSPGGGGGSGGGGSGGGGSGGGGSQVQLVQSGAEVKKPGASVKVSCKASGYTFAGFEMHWVRQAPGQGLEWMGAIDPKTGGTDYNQKFKDRVTMTRDTSISTAYMELSRLRSDDTAVYYCARDLGYFDVWGQGTLVTVSSGGGGSGGGGSGGGGSGGGGSDIQMTQSPSSLSASVGDRVTITCRASQDIRSNLNWYQQKPGGAVKLLIYYTSRLHSGVPSRFSGSGSGTDYTLTISSLQPEDFATYFCQQSEKLPRTFGGGTKVEIR
light: B1 light
notes: Anti-GITR/CD137: TM677 heavy chain fused to Ly1630 scFv (VH-VL); TM677 light chain
With B2 the binding result [1] was “binds” and the “EC50 (read off the curve)” value [2] was ~0.2 µg/mL.

B3: Ly762 (bispecific antibody, human IgG1, kappa)
heavy: QVQLVQSGAEVKKPGASVKVSCKASGYTFAGFEMHWVRQAPGQGLEWMGAIDPKTGGTDYNQKFKDRVTMTRDTSISTAYMELSRLRSDDTAVYYCARDLGYFDVWGQGTLVTVSSASTKGPSVFPLAPSSKSTSGGTAALGCLVKDYFPEPVTVSWNSGALTSGVHTFPAVLQSSGLYSLSSVVTVPSSSLGTQTYICNVNHKPSNTKVDKKVEPKSCDKTHTCPPCPAPELLGPSVFLFPPKPKDTLMISRTPEVTCVVVDVSHEDPEVKFNWYVDGVEVHNAKTKPREEQYNSTYRVVSVLTVLHQDWLNGKEYKCKVSNKALPAPIEKTISKAKGQPREPQVYTLPPSREEMTKNQVSLTCLVKGFYPSDIAVEWESNGQPENNYKTTPPVLDSDGSFFLYSKLTVDKSRWQQGNVFSCSVMHEALHNHYTQKSLSLSPGGGGGSGGGGSGGGGSGGGGSDIQMTQSPSSLSASVGDRVTITCRASQDISNYLNWYQQKPGKAPKLLIYYTSRLRSGVPSRFSGSGSGTDFTLTISSLQPEDFATYYCQQGHTLPPTFGQGTKVEIKGGGGSGGGGSGGGGSGGGGSEVQLVQSGAEVKKPGASVKVSCKASGYTFTDSYMSWVRQAPGQGLEWIGDMYPDNGDSSYNQKFRERVTITRDTSTSTAYLELSSLRSEDTAVYYCVLAPRWYFSVWGQGTLVTVSS
light: DIQMTQSPSSLSASVGDRVTITCRASQDIRSNLNWYQQKPGGAVKLLIYYTSRLHSGVPSRFSGSGSGTDYTLTISSLQPEDFATYFCQQSEKLPRTFGGGTKVEIRRTVAAPSVFIFPPSDEQLKSGTASVVCLLNNFYPREAKVQWKVDNALQSGNSQESVTEQDSKDSTYSLSSTLTLSKADYEKHKVYACEVTHQGLSSPVTKSFNRGEC
notes: Ly1630 light chain
With B3 the “EC50 (read off the curve)” value [3] was ~0.1 µg/mL and the binding result [4] was “binds”.

B4: Ly763 (bispecific antibody, human IgG1, kappa)
heavy: QVQLVQSGAEVKKPGASVKVSCKASGYTFAGFEMHWVRQAPGQGLEWMGAIDPKTGGTDYNQKFKDRVTMTRDTSISTAYMELSRLRSDDTAVYYCARDLGYFDVWGQGTLVTVSSASTKGPSVFPLAPSSKSTSGGTAALGCLVKDYFPEPVTVSWNSGALTSGVHTFPAVLQSSGLYSLSSVVTVPSSSLGTQTYICNVNHKPSNTKVDKKVEPKSCDKTHTCPPCPAPELLGPSVFLFPPKPKDTLMISRTPEVTCVVVDVSHEDPEVKFNWYVDGVEVHNAKTKPREEQYNSTYRVVSVLTVLHQDWLNGKEYKCKVSNKALPAPIEKTISKAKGQPREPQVYTLPPSREEMTKNQVSLTCLVKGFYPSDIAVEWESNGQPENNYKTTPPVLDSDGSFFLYSKLTVDKSRWQQGNVFSCSVMHEALHNHYTQKSLSLSPGGGGGSGGGGSGGGGSGGGGSEVQLVQSGAEVKKPGASVKVSCKASGYTFTDSYMSWVRQAPGQGLEWIGDMYPDNGDSSYNQKFRERVTITRDTSTSTAYLELSSLRSEDTAVYYCVLAPRWYFSVWGQGTLVTVSSGGGGSGGGGSGGGGSGGGGSDIQMTQSPSSLSASVGDRVTITCRASQDISNYLNWYQQKPGKAPKLLIYYTSRLRSGVPSRFSGSGSGTDFTLTISSLQPEDFATYYCQQGHTLPPTFGQGTKVEIK
light: B3 light
notes: Ly1630 light chain
With B4 the “EC50 (read off the curve)” value [3] was ~0.1 µg/mL and the binding result [4] was “binds”.

B5: Ly764 (bispecific antibody, human IgG1, kappa)
heavy: QVQLVQSGAEVKKPGASVKVSCKASGYTFAGFEMHWVRQAPGQGLEWMGAIDPKTGGTDYNQKFKDRVTMTRDTSISTAYMELSRLRSDDTAVYYCARDLGYFDVWGQGTLVTVSSASTKGPSVFPLAPSSKSTSGGTAALGCLVKDYFPEPVTVSWNSGALTSGVHTFPAVLQSSGLYSLSSVVTVPSSSLGTQTYICNVNHKPSNTKVDKKVEPKSCDKTHTCPPCPAPELLGPSVFLFPPKPKDTLMISRTPEVTCVVVDVSHEDPEVKFNWYVDGVEVHNAKTKPREEQYNSTYRVVSVLTVLHQDWLNGKEYKCKVSNKALPAPIEKTISKAKGQPREPQVYTLPPSREEMTKNQVSLTCLVKGFYPSDIAVEWESNGQPENNYKTTPPVLDSDGSFFLYSKLTVDKSRWQQGNVFSCSVMHEALHNHYTQKSLSLSPGK
light: DIQMTQSPSSLSASVGDRVTITCRASQDIRSNLNWYQQKPGGAVKLLIYYTSRLHSGVPSRFSGSGSGTDYTLTISSLQPEDFATYFCQQSEKLPRTFGGGTKVEIRRTVAAPSVFIFPPSDEQLKSGTASVVCLLNNFYPREAKVQWKVDNALQSGNSQESVTEQDSKDSTYSLSSTLTLSKADYEKHKVYACEVTHQGLSSPVTKSFNRGECGGGGSGGGGSGGGGSGGGGSDIQMTQSPSSLSASVGDRVTITCRASQDISNYLNWYQQKPGKAPKLLIYYTSRLRSGVPSRFSGSGSGTDFTLTISSLQPEDFATYYCQQGHTLPPTFGQGTKVEIKGGGGSGGGGSGGGGSGGGGSEVQLVQSGAEVKKPGASVKVSCKASGYTFTDSYMSWVRQAPGQGLEWIGDMYPDNGDSSYNQKFRERVTITRDTSTSTAYLELSSLRSEDTAVYYCVLAPRWYFSVWGQGTLVTVSS
notes: Anti-OX40/CD137: Ly1630 heavy chain
For B5, the “EC50 (read off the curve)” value [3] was ~0.2 µg/mL and the “EC50 (read off the curve)” value [4] was ~0.9 µg/mL.
